Measurements from article PMC5333794.

What was measured:
gp120 (bead-conjugated) = assay: Fc Array (multiplexed bead assay, anti-huIgG-PE detection); conditions: variants incubated with gp120-coated microspheres at equal concentrations; read off a plot
[1] = molecular target: tetrameric FcγRIII detection reagent (UniProt P08637); assay: Fc Array (multiplexed bead assay, tetrameric FcγRIII detection); conditions: variants incubated with gp120-coated microspheres at equal concentrations; read off a plot
UniProt P08637, sequence (P08637 17-254): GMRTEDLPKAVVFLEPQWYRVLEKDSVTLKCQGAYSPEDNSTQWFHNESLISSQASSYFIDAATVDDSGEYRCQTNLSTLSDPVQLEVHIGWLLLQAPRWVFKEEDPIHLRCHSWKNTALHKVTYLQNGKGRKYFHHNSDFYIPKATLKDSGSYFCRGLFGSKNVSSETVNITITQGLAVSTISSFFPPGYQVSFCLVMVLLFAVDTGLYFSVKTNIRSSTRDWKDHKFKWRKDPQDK

Work on b12 D270E yielded a response (gp120 (bead-conjugated)) of 14000 MFI and a response [1] of 110 MFI.

With b12 G236A the response (gp120 (bead-conjugated)) was 14000 MFI and the response [1] was 59 MFI.

Work on b12 I332E yielded a response (gp120 (bead-conjugated)) of 13000 MFI and a response [1] of 320 MFI.

Substance b12 IE/SD has a response (gp120 (bead-conjugated)) of 14000 MFI and a response [1] of 2000 MFI.

Work on b12 IE/SD/GA yielded a response (gp120 (bead-conjugated)) of 13000 MFI and a response [1] of 1100 MFI.

In the case of b12 K338A, the response (gp120 (bead-conjugated)) is reported as 13000 MFI and the response [1] is reported as 110 MFI.

In the case of b12 R292A, the response (gp120 (bead-conjugated)) is reported as 13000 MFI and the response [1] is reported as 140 MFI.

In the case of b12 S239A, the response (gp120 (bead-conjugated)) is reported as 13000 MFI and the response [1] is reported as 110 MFI.

b12 S267G showed a response (gp120 (bead-conjugated)) of 14000 MFI and a response [1] of 80 MFI.

b12 S298A was tested, and the response (gp120 (bead-conjugated)) was 14000 MFI and the response [1] was 96 MFI.

b12 SD/IE/AL showed a response (gp120 (bead-conjugated)) of 13000 MFI and a response [1] of 2800 MFI.
